Reference: paper PMC4906247

B1: hDAPK2 CD + ARD wild type (pETM14 construct for SEC, SAXS, CaM pull-down and FA) [human] / itself (parent)
chain: NMEPFKQQKVEDFYDIGEELGSGQFAIVKKCREKSTGLEYAAKFIKKRQSRASRRGVSREEIEREVSILRQVLHHNVITLHDVYENRTDVVLILELVSGGELFDFLAQKESLSEEEATSFIKQILDGVNYLHTKKIAHFDLKPENIMLLDKNIPIPHIKLIDFGLAHEIEDGVEFKNIFGTPEFVAPEIVNYEPLGLEADMWSIGVITYILLSGASPFLGDTKQETLANITAVSYDFDEEFFSQTSELAKDFIRKLLVKETRKRLTIQEALRHPWITPVDNQQAMVRRESVVNLENFRKQYVRRRWKLSFSIVSLCNHLTR

Variants of: B1
Assay: analytical size-exclusion chromatography (SEC)
Settings: with itself

screen value [kDa]	Variant
4410	chain 1 R48E R51E R54E R55E
